Source: paper PMC4771712, “Deciphering Mode of Action of Functionally Important Regions in the Intrinsically Disordered Paxillin (Residues 1-313) Using Its Interaction with FAT (Focal Adhesion Targeting Domain of Focal Adhesion Kinase)” (PLoS ONE, 2016)

T1: GST fusion of the FAT (focal adhesion targeting) domain of focal adhesion kinase, human FAK 892-1052 (human, UniProt Q05397 892-1052)
T1 construct: focal adhesion kinase (FAK), human, FAT domain, residues 892-1052; Cloned into pGEX4T1; For the pull-down provided by Dr. M. K. Hoellerer; for bio-layer interferometry the same construct was synthesised (GeneArt) and made by the same procedure; also called GST-FAT; GST labeled FAT; source: E. coli BL21 (DE3), purified using GST-4B beads
T1 sequence (looked up): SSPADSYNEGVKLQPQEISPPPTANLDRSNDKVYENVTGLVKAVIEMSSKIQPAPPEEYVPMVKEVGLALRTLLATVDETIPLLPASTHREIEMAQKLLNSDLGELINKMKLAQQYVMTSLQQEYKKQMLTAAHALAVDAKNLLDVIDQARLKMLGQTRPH


Experiments:
[1] = target: T1, GST fusion of the FAT (focal adhesion …); assay: BLI; GST-FAT immobilised on Anti-GST biosensors (20 μg/ml in PBS), paxillin constructs as analytes in PBS with Tween 20 (0.05%) and BSA (1%), Octet RED96, global fitting (B2 1:1 model, C35_1 to C35_3 2:1 model); details: both partners purified
[2] = target: T1, GST fusion of the FAT (focal adhesion …); assay: as above; details: both partners purified; remark: listed apart in the source

Binder	stoichiometry N [1] [construct per FAT]	Kd [2] [µM]	koff [2] [s⁻¹]	kon [2] [M⁻¹ s⁻¹]
paxillin Construct C35_1 (54-189) (domain or fragment, human, UniProt P49023-2 54-189, looked up, human paxillin residues 54-189; Cloned into pET28a; source: E. coli BL21DE3, purified) SSEALNGTILDPLDQWQPSSSRFIHQQPQSSSPVYGSSAKTSSVSNPQDSVGSPCSRVGEEEHVYSFPNKQKSAEPSPTVMSTSLGSNLSELDRLLLELNAVQHNPPGFPADEANSSPPLPGALSPLYGVPETNSP	2	5.39	0.121	22500
paxillin construct B2, expressed in E. coli for bio-layer interferometry (domain or fragment) SSEALNGTILDPLDQWQPSSSRFIHQQPQSSSPVYGSSAKTSSVSNPQDSVGSPCSRVGEEEHVYSFPNKQKSAEPSPTVMSTSLGSNLSELDRLLLELNAVQHNPPGFPADEANSSPPLPGALSPLYGVPETNSPLGGKAGPLTKEKPKRNGGRGLEDVRPSVESLLDELESSVPSPVPAITVNQGEMSSPQRVTSTQQQTRISASSATRELDELMASLSDFKFM	1	0.0361	0.00171	47500

Further lines, results first:

stoichiometry N [1] [construct per FAT]	Kd [2] [µM]	koff [2] [s⁻¹]	kon [2] [M⁻¹ s⁻¹]	Binder
2	16.9	0.164	9710	paxillin Construct C35_2 (79-189) (domain or fragment, human, UniProt P49023-2 79-189, looked up, human paxillin residues 79-189; Cloned into pET28a; source: E. coli BL21DE3, purified) QQPQSSSPVYGSSAKTSSVSNPQDSVGSPCSRVGEEEHVYSFPNKQKSAEPSPTVMSTSLGSNLSELDRLLLELNAVQHNPPGFPADEANSSPPLPGALSPLYGVPETNSP
2	1.45	0.106	72900	paxillin Construct C35_3 (105-189) (domain or fragment, human, UniProt P49023-2 105-189, looked up, human paxillin residues 105-189; Cloned into pET28a; source: E. coli BL21DE3, purified) GSPCSRVGEEEHVYSFPNKQKSAEPSPTVMSTSLGSNLSELDRLLLELNAVQHNPPGFPADEANSSPPLPGALSPLYGVPETNSP
